1 protein from publication PMC9663306 can be followed below.

The series can be described thus: flow cytometry of surface IL-17RC, ST2 cells. Particulars: glycan lost; control: SF-IL-17RCWT.

B1: IL-17RC: SF-IL-17RCMutE (protein)
parent chain: MPVSWFLLSLALGRNPVVVSLERLMEPQDTARCSLGLSCHLWDGDVLCLPGSLQSAPGPVLVPTRLQTELVLRCPQKTDCALCVRVVVHLAVHGHWAEPEEAGKSDSELQESRNASLQAQVVLSFQAYPIARCALLEVQVPADLVQPGQSVGSAVFDCFEASLGAEVQIWSYTKPRYQKELNLTQQLPDCRGLEVRDSIQSCWVLPWLNVSTDGDNVLLTLDVSEEQDFSFLLYLRPVPDALKSLWYKNLTGPQNITLNHTDLVPCLCIQVWSLEPDSERVEFCPFREDPGAHRNLWHIARLRVLSPGVWQLDAPCCLPGKVTLCWQAPDQSPCQPLVPPVPQKNATVNEPQDFQLVAGHPNLCVQVSTWEKVQLQACLWADSLGPFKDDMLLVEMKTGLNNTSVCALEPSGCTPLPSMASTRAARLGEELLQDFRSHQCMQLWNDDNMGSLWACPMDKYIHRRWVLVWLACLLLAAALFFFLLLKKDRRKAARGSRTALLLHSADGAGYERLVGALASALSQMPLRVAVDLWSRRELSAHGALAWFHHQRRRILQEGGVVILLFSPAAVAQCQQWLQLQTVEPGPHDALAAWLSCVLPDFLQGRATGRYVGVYFDGLLHPDSVPSPFRVAPLFSLPSQLPAFLDALQGGCSTSAGRPADRVERVTQALRSALDSCTSSSEAPGCCEEWDLGPCTTLE
With B1, the localisation_or_trafficking entry is recorded as “decreases”.
